Reference: patent US20260242478A1 (published 2026)
Where no end group is shown, it is not given here.

B1: Phage-1570 (peptide)
peptide: TCEDGFHFSWPECF
B2: Phage-1315 (peptide)
peptide: YCAGHTTEYIVKCL
notes: Peptide-87 library clone, tested as clonal phage (peptide fused to pIII of the bacteriophage)
B3: Phage-1325 (peptide)
peptide: YCEGHAPVYMQKCL
notes: as for B2
B4: Phage-1309 (peptide, not shown: large carriers)
peptide: YCDGHIMPYLDKCL
modifications: cysteine pairing not given here; also: fused to phage pIII protein, pIII and linker sequence not given here
notes: Tested as clonal phage supernatant
B5: Phage-1316 (peptide)
peptide: YCEGHVPQYMGKCL
notes: as for B2
B6: Phage-1575 (peptide)
peptide: TCAAGAHYSWPFCM
B7: Phage-1307 (peptide, not shown: large carriers)
peptide: YCEGHLQEYMGKCL
modifications: cysteine pairing not given here; also: fused to phage pIII protein, pIII and linker sequence not given here
notes: as for B4
B8: Phage-1318 (peptide)
peptide: YCEGHLGLYMKKCL
notes: as for B2
B9: Phage-1304 (peptide, not shown: large carriers)
peptide: YCEGHIGDYIAKCL
modifications: cysteine pairing not given here; also: fused to phage pIII protein, pIII and linker sequence not given here
notes: as for B4
B10: Phage-1567 (peptide)
peptide: TCSAGATYMWPACF
B11: Phage-1568 (peptide)
peptide: TCSAGATYAWPACF
B12: Phage-1324 (peptide)
peptide: YCEGHMQWYMAKCL
notes: as for B2
B13: Phage-1562 (peptide)
peptide: LCAAGATYPWPICL
B14: Phage-1320 (peptide)
peptide: YCAGHIPQYLNKCL
notes: as for B2
B15: Phage-1572 (peptide)
peptide: TCSAGATYTWPSCF
B16: Phage-1565 (peptide)
peptide: SCSAGAMYQWPLCF
B17: Phage-1319 (peptide)
peptide: YCAGHAQEYMRKCL
notes: as for B2
B18: Phage-1326 (peptide)
peptide: YCDGHDEQYLMKCL
notes: as for B2
B19: Phage-1322 (peptide)
peptide: YCEGHIKDYMTKCL
notes: as for B2
B20: Phage-1305 (peptide, not shown: large carriers)
peptide: YCQGHSELYMSKCL
modifications: cysteine pairing not given here; also: fused to phage pIII protein, pIII and linker sequence not given here
notes: as for B4
B21: Phage-1564 (peptide)
peptide: TCSAGFSYKWPWCW
B22: Phage-1303 (peptide, not shown: large carriers)
peptide: YCAGHALEYMQKCM
modifications: cysteine pairing not given here; also: fused to phage pIII protein, pIII and linker sequence not given here
notes: as for B4
B23: Phage-1312 (peptide, not shown: large carriers)
peptide: YCDGHLETYMQKCL
modifications: cysteine pairing not given here; also: fused to phage pIII protein, pIII and linker sequence not given here
notes: as for B4
B24: Phage-1308 (peptide, not shown: large carriers)
peptide: YCDGHVTEYMAKCL
modifications: cysteine pairing not given here; also: fused to phage pIII protein, pIII and linker sequence not given here
notes: as for B4
B25: Phage-1561 (peptide)
peptide: TCAAGANWHWPWCF
B26: Phage-1573 (peptide)
peptide: WCDQFFHYKWPLCL
B27: Phage-1323 (peptide)
peptide: YCAGHDAEYMQKCL
notes: as for B2
B28: Phage-1311 (peptide, not shown: large carriers)
peptide: YCEGHVELYRQKCL
modifications: cysteine pairing not given here; also: fused to phage pIII protein, pIII and linker sequence not given here
notes: as for B4
B29: Phage-1574 (peptide)
peptide: SCAAGATYVWPMCF
B30: Phage-1306 (peptide, not shown: large carriers)
peptide: YCDGHTPQFRAKCL
modifications: cysteine pairing not given here; also: fused to phage pIII protein, pIII and linker sequence not given here
notes: as for B4
B31: Phage-1314 (peptide)
peptide: YCEGHLDEYLQKCM
notes: as for B2
B32: Phage-1569 (peptide)
peptide: WCGVGMDWRWPECL
B33: Phage-1310 (peptide, not shown: large carriers)
peptide: YCEGHKKEYMLKCL
modifications: cysteine pairing not given here; also: fused to phage pIII protein, pIII and linker sequence not given here
notes: as for B4
B34: Phage-1563 (peptide)
peptide: SCSAGALWKWPVCF
B35: Phage-1321 (peptide)
peptide: YCDGHSTEYMWKCL
notes: as for B2
B36: Phage-1302 (peptide, not shown: large carriers)
peptide: YCDGHIEMYMSKCM
modifications: cysteine pairing not given here; also: fused to phage pIII protein, pIII and linker sequence not given here
notes: as for B4
B37: Phage-1317 (peptide)
peptide: YCDGHAAMYMSKCL
notes: as for B2

What was measured:
[1] = target: T1, Anti-CD28 Fab (SEQ ID NOs: 696, 697); test: phage ELISA; biotinylated anti-CD28 Fab on neutravidin plate, wells pre-incubated with CD28 antigen as competitor, anti-M13 HRP detection
T1 construct: Biotinylated and captured on neutravidin coated plates in the phage ELISA
T1 sequence (VH, as listed by the source, chain 1 of 2): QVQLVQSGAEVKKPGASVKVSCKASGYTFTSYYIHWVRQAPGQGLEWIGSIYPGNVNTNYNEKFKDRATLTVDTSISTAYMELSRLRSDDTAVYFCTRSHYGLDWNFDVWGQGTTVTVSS
T1 sequence (VL, as listed by the source, chain 2 of 2): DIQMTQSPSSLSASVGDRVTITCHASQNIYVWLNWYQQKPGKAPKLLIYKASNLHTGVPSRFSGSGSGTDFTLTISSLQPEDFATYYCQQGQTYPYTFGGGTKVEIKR
Method: (§1) Clonal phage were harvested as crude supematants and screened via standard ELISAs. […] Prior to the addition of clonal phage, wells were incubated with blocking buffer and CD28 antigen or blocking buffer alone. Without washing or aspirating, clonal phage supematants were then added to the wells and incubated for a short time. Wells were then washed followed by detection of bound phage using a horse radish conjugated anti-M13 antibody.

[2] = target: T1, Anti-CD28 Fab (SEQ ID NOs: 696, 697); test: phage ELISA; biotinylated anti-CD28 Fab on neutravidin plate, clonal phage supernatant, anti-M13 HRP detection;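 for Anti-CD28 Fab signal (phage binding ELISA): crude supernatants of single phage clones picked after panning were screened for binding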;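 for Phage binding ELISA, Anti-CD28 Fab signal: before phage addition, wells were pretreated with either CD28 antigen in blocking buffer or only blocking buffer, and phage was added without an intervening wash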
Method: as §1

[3] = target: Anti-CD28 Fab (SEQ ID NOs: 696, 697); test: phage binding ELISA on captured anti-CD28 Fab, wells pre-incubated with CD28 antigen as competitor;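 note: crude clonal phage supernatants added to wells preloaded with CD28 antigen, bound phage read by HRP-conjugated anti-M13 antibody, control wells got blocking buffer alone without CD28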
Target sequence in this assay (VH, as listed by the source, chain 1 of 2): as the sequence (VH, as listed by the source, chain 1 of 2) above
Target sequence in this assay (VL, as listed by the source, chain 2 of 2): as the sequence (VL, as listed by the source, chain 2 of 2) above

[4] = target: Anti-CD28 Fab (SEQ ID NOs: 696, 697); test: phage binding ELISA, clonal phage on biotinylated anti-CD28 Fab captured on neutravidin plates;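 note: crude clonal phage supernatants added to wells pretreated with CD28 antigen or blocking buffer only, bound phage detected by HRP-linked anti-M13 antibody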
Target sequence in this assay (VH, as listed by the source, chain 1 of 2): as the sequence (VH, as listed by the source, chain 1 of 2) above
Target sequence in this assay (VL, as listed by the source, chain 2 of 2): as the sequence (VL, as listed by the source, chain 2 of 2) above
Method: (§2) After panning, phage infected bacteria were plated out and colonies picked into 96 well blocks. Clonal phage was then amplified and separated from bacterial cells via centrifugation.
(§3) Clonal phage were harvested as crude supematants and screened via standard ELISAs. […] Prior to the addition of clonal phage, wells were incubated with blocking buffer and CD28 antigen or blocking buffer alone. Without washing or aspirating, clonal phage supematants were then added to the wells and incubated for a short time. Wells were then washed followed by detection of bound phage using a horse radish conjugated anti-M13 antibody. Clonal phage of interest were then sent for sequence analysis.

[5] = target: Anti-CD28 Fab (SEQ ID NOs: 696, 697); test: phage ELISA; biotinylated anti-CD28 Fab on neutravidin plate, clonal phage supernatant, anti-M13 HRP detection;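 for Anti-CD28 Fab signal (phage binding ELISA): crude supernatants of single phage clones picked after panning were screened for binding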;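 for Phage binding ELISA, Anti-CD28 Fab signal: before phage addition, wells were pretreated with either CD28 antigen in blocking buffer or only blocking buffer, and phage was added without an intervening wash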
Target sequence in this assay (VH, as listed by the source, chain 1 of 2): as the sequence (VH, as listed by the source, chain 1 of 2) above
Target sequence in this assay (VL, as listed by the source, chain 2 of 2): as the sequence (VL, as listed by the source, chain 2 of 2) above
Method: as §2, §3

[6] = target: Anti-CD28 Fab (SEQ ID NOs: 696, 697); test: phage ELISA as above; wells pre-incubated with CD28 antigen as competitor
Target sequence in this assay (VH, as listed by the source, chain 1 of 2): as the sequence (VH, as listed by the source, chain 1 of 2) above
Target sequence in this assay (VL, as listed by the source, chain 2 of 2): as the sequence (VL, as listed by the source, chain 2 of 2) above
Method: as §2, §3

Binder	Phage binding ELISA, Anti-CD28 Fab signal in the presence of CD28 [1]	Phage binding ELISA, Anti-CD28 Fab signal [2]	Anti-CD28 Fab signal in the presence of CD28 (phage binding ELISA) [3]	Anti-CD28 Fab signal (phage binding ELISA) [4]	also measured
B1	0.07	1.44	–	–	–
B2	–	–	0.05	0.5	–
B3	–	–	0.08	0.44	–
B4	–	–	–	–	Anti-CD28 Fab signal (phage binding ELISA) [5]: 0.57; Anti-CD28 Fab signal in the presence of CD28 (phage binding ELISA) [6]: 0.05
B5	–	–	0.08	0.5	–
B6	0.07	1.42	–	–	–
B7	–	–	–	–	Anti-CD28 Fab signal (phage binding ELISA) [5]: 0.58; Anti-CD28 Fab signal in the presence of CD28 (phage binding ELISA) [6]: 0.25
B8	–	–	0.06	0.49	–
B9	–	–	–	–	Anti-CD28 Fab signal (phage binding ELISA) [5]: 0.61; Anti-CD28 Fab signal in the presence of CD28 (phage binding ELISA) [6]: 0.36
B10	0.1	1.44	–	–	–
B11	0.08	1.44	–	–	–
B12	–	–	0.09	0.45	–
B13	0.08	1.46	–	–	–
B14	–	–	0.07	0.49	–
B15	0.06	1.42	–	–	–
B16	0.09	1.44	–	–	–
B17	–	–	0.07	0.49	–
B18	–	–	0.07	0.44	–
B19	–	–	0.08	0.47	–

Binder	Phage binding ELISA, Anti-CD28 Fab signal in the presence of CD28 [1]	Phage binding ELISA, Anti-CD28 Fab signal [2]	Anti-CD28 Fab signal in the presence of CD28 (phage binding ELISA) [3]	Anti-CD28 Fab signal (phage binding ELISA) [4]	also measured
B20	–	–	–	–	Anti-CD28 Fab signal (phage binding ELISA) [5]: 0.6; Anti-CD28 Fab signal in the presence of CD28 (phage binding ELISA) [6]: 0.08
B21	0.06	1.45	–	–	–
B22	–	–	–	–	Anti-CD28 Fab signal (phage binding ELISA) [5]: 0.61; Anti-CD28 Fab signal in the presence of CD28 (phage binding ELISA) [6]: 0.08
B23	–	–	–	–	Anti-CD28 Fab signal (phage binding ELISA) [5]: 0.53; Anti-CD28 Fab signal in the presence of CD28 (phage binding ELISA) [6]: 0.08
B24	–	–	–	–	Anti-CD28 Fab signal (phage binding ELISA) [5]: 0.58; Anti-CD28 Fab signal in the presence of CD28 (phage binding ELISA) [6]: 0.07
B25	0.15	1.46	–	–	–
B26	0.07	1.42	–	–	–
B27	–	–	0.06	0.46	–
B28	–	–	–	–	Anti-CD28 Fab signal (phage binding ELISA) [5]: 0.56; Anti-CD28 Fab signal in the presence of CD28 (phage binding ELISA) [6]: 0.06
B29	0.07	1.42	–	–	–
B30	–	–	–	–	Anti-CD28 Fab signal (phage binding ELISA) [5]: 0.59; Anti-CD28 Fab signal in the presence of CD28 (phage binding ELISA) [6]: 0.07
B31	–	–	0.08	0.51	–
B32	0.16	1.44	–	–	–
B33	–	–	–	–	Anti-CD28 Fab signal (phage binding ELISA) [5]: 0.56; Anti-CD28 Fab signal in the presence of CD28 (phage binding ELISA) [6]: 0.08
B34	0.07	1.45	–	–	–
B35	–	–	0.06	0.49	–
B36	–	–	–	–	Anti-CD28 Fab signal (phage binding ELISA) [5]: 0.61; Anti-CD28 Fab signal in the presence of CD28 (phage binding ELISA) [6]: 0.06
B37	–	–	0.07	0.5	–
